Source: paper PMC8807840

What was measured:
[1] = target: A3Bctd-CBE (A3Bctd-nCas9-2xUGI)
[2] = target: A3A-CBE (A3A-nCas9-2xUGI)
[3] = target: A3Gctd-CBE (A3Gctd-nCas9-2xUGI)

B1: Ade1 (EBV-BORF2) (natural protein)
chain: MATTSHVEHELLSKLIDELKVKANSDPEADVLAGRLLHRLKAESVTHTVAEYLEVFSDKFYDEEFFQMHRDELETRVSAFAQSPAYERIVSSGYLSALRYYDTYLYVGRSGKQESVQHFYMRLAGFCASTTCLYAGLRAALQRARPEIESDMEVFDYYFEHLTSQTVCCSTPFMRFAGVENSTLASCILTTPDLSSEWDVTQALYRHLGRYLFQRAGVGVGVTGAGQDGKHISLLMRMINSHVEYHNYGCKRPVSVAAYMEPWHSQIFKFLETKLPENHERCPGIFTGLFVPELFFKLFRDTPWSDWYLFDPKDAGDLERLYGEEFEREYYRLVTAGKFCGRVSIKSLMFSIVNCAVKAGSPFILLKEACNAHFWRDLQGEAMNAANLCAEVLQPSRKSVATCNLANICLPRCLVNAPLAVRAQRADTQGDELLLALPRLSVTLPGEGAVGDGFSLARLRDATQCATFVVACSILQGSPTYDSRDMASMGLGVQGLADVFADLGWQYTDPPSRSLNKEIFEHMYFTALCTSSLIGLHTRKIFPGFKQSKYAGGWFHWHDWAGTDLSIPREIWSRLSERIVRDGLFNSQFIALMPTSGCAQVTGCSDAFYPFYANASTKVTNKEEALRPNRSFWRHVRLDDREALNLVGGRVSCLPEALRQRYLRFQTAFDYNQEDLIQMSRDRAPFVDQSQSHSLFLREEDAARASTLANLLVRSYELGLKTIMYYCRIEKAADLGVMECKASAALSVPREEQNERSPAEQMPPRPMEPAQVAGPVDIMSKGPGEGPGGWCVPGGLEVCYKYRQLFSEDDLLETDGFTERACESCQ
In the case of B1, the fold inhibition of base editing by Ade1 at the FANCF site, HEK293T cells (Fig. 2e) [1] is reported as 5.2 fold, the fold inhibition of base editing by Ade1 at the FANCF site, HEK293T cells (Fig. 2e) [2] is reported as 1.06 fold and the fold inhibition of base editing by Ade1 at the FANCF site, HEK293T cells (Fig. 2e) (A3A-L1B CBE chimera) is reported as 3.26 fold. It also gave a fold inhibition of base editing by Ade1 at the FANCF site, HEK293T cells (Fig. 2e) (A3Gctd-L1L7B CBE chimera) of 5.66 fold, a fold inhibition of base editing by Ade1 at the FANCF site, HEK293T cells (Fig. 2e) (A3Bctd-L1A CBE chimera) of 1.47 fold and a fold inhibition of base editing by Ade1 at the FANCF site, HEK293T cells (Fig. 2e) (A3Gctd-L1B CBE chimera) of 5.67 fold. It also gave a fold inhibition of base editing by Ade1 at the FANCF site, HEK293T cells (Fig. 2e) (A3Bctd-L7G CBE chimera) of 1.06 fold, a fold inhibition of base editing by Ade1 at the FANCF site, HEK293T cells (Fig. 2e) (A3Gctd-L7B CBE chimera) of 1.32 fold and a fold inhibition of base editing by Ade1 at the FANCF site, HEK293T cells (Fig. 2e) [3] of 0.96 fold.
